Measured values published in US6072035.
Substitutions are numbered along the chain they refer to.

B1: reshaped human C21 antibody C21-H1/L3 (antibody, V domains shown)
VH: QVQLVQSGAEVKKPGASVKVSCKASGYTFSMYWLEWVKQRPGHGLEWVGEISPGTFTTNYNEKFKAKATFTADTSTNTAYMELSSLTSEDTAVYYCARFSHFSG
VL: EIVLTQSPGTLSLSPGERATLSCRASQSIGTNIHWYQQKPGQAPRLLIKYASESISGIPSRFSGSGSGTDFTLTISRLEPEDFAMYYCQQSDSWPTTFGQGTKVEIK
B2: reshaped human C21 antibody C21-H3/L1 (antibody, V domains shown)
VH: B1 VH with K38R, R40A, K67R, T87R
VL: DILLTQSPGTLSLSPGERATLSCRASQSIGTNIHWYQQKPGQAPRLLIKYASESISGIPSRFSGSGSGTDFTLTISRLEPEDFAMYY
B3: reshaped human C21 antibody C21-Hay3/L3 (antibody, V domains shown)
VH: QVQLVQSGAEVKKPGASVKVSCKASGYTFSMYWLEWVRQAPGQRLEWMGEISPGTFTTNYNEKFKARATFTADTSASTAYMELSSLRSEDTAVYYCARFSHFSGSNYDYFDYWGQGTLVTVSS
VL: B1 VL
B4: reshaped human C21 antibody C21-H1/L1 (antibody, V domains shown)
VH: B1 VH
VL: B2 VL
B5: reshaped human C21 antibody C21-H1/L2 (antibody, V domains shown)
VH: B1 VH
VL: B1 VL with E1D, V3L, S60D
B6: reshaped human C21 antibody C21-Hay3/L2 (antibody, V domains shown)
VH: B3 VH
VL: B1 VL with E1D, V3L, S60D
B7: reshaped human C21 antibody C21-H3/L3 (antibody, V domains shown)
VH: B1 VH with K38R, R40A, K67R, T87R
VL: B1 VL
B8: reshaped human C21 antibody C21-H3/L2 (antibody, V domains shown)
VH: B1 VH with K38R, R40A, K67R, T87R
VL: B1 VL with E1D, V3L, S60D
B9: murine monoclonal antibody TES-C21 (antibody, V domains shown)
VH: QVQLQQSGAELMKPGASVKISCKTTGYTFSMYWLEWVKQRPGHGLEWVGEISPGTFTTNYNEKFKAKATFTADTSSNTAYLQLSGLTSEDSAVYFCARFSHFSGSNYDYFDYWGQGTSLTVSS
VL: DILLTQSPAILSVSPGERVSFSCRASQSIGTNIHWYQQRTDGSPRLLIKYASESISGIPSRFSGSGSGTEFTLNINSVESEDIADYYCQQSDSWPTTFGGGTKLEIK
B10: reshaped human C21 antibody C21-Hay3/L1 (antibody, V domains shown)
VH: B3 VH
VL: B2 VL

How the values were obtained:
[1] = target: human IgE; monoclonal antibody SE44 (human) (UniProt P01854); assay: BIAcore, antibody captured by anti-human IgG, IgE SE44 as analyte
[2] = target: human IgE; monoclonal antibody SE44 (human) (UniProt P01854); assay: BIAcore, antibody captured by anti-mouse IgG1, IgE SE44 as analyte

Row | Binder | Ka [1] | koff [1] | kon [1] | Ka [2] | koff [2] | kon [2]
1 | B1 | 4.7e+09 M⁻¹ | 6.2e-05 s⁻¹ | 290000 M⁻¹ s⁻¹ | – | – | –
2 | B2 | 1.32e+10 M⁻¹ | 1.9e-05 s⁻¹ | 250000 M⁻¹ s⁻¹ | – | – | –
3 | B3 | 1.6e+09 M⁻¹ | 0.000159 s⁻¹ | 260000 M⁻¹ s⁻¹ | – | – | –
4 | B4 | 8.7e+09 M⁻¹ | 3e-05 s⁻¹ | 260000 M⁻¹ s⁻¹ | – | – | –
5 | B5 | 4.9e+09 M⁻¹ | 5.7e-05 s⁻¹ | 280000 M⁻¹ s⁻¹ | – | – | –
6 | B6 | 8.1e+09 M⁻¹ | 3.1e-05 s⁻¹ | 250000 M⁻¹ s⁻¹ | – | – | –
7 | B7 | 7.4e+09 M⁻¹ | 3.5e-05 s⁻¹ | 260000 M⁻¹ s⁻¹ | – | – | –
8 | B8 | 5.7e+09 M⁻¹ | 4.4e-05 s⁻¹ | 250000 M⁻¹ s⁻¹ | – | – | –
9 | B9 | – | – | – | 9.2e+09 M⁻¹ | 2.6e-05 s⁻¹ | 240000 M⁻¹ s⁻¹
10 | B10 | 6.1e+09 M⁻¹ | 4.1e-05 s⁻¹ | 250000 M⁻¹ s⁻¹ | – | – | –
